Reference: paper PMC5745067 (Neuron, 2017)

B1: extracellular domain of rat NLGN2 (Val43-His612, containing the site A insert) (domain or fragment, UniProt Q62888-1 43-612, looked up)
chain: VVNTAYGRVRGVRRELNNEILGPVVQFLGVPYATPPLGARRFQPPEAPASWPGVRNATTLPPACPQNLHGALPAIMLPVWFTDNLEAAATYVQNQSEDCLYLNLYVPTEDGPLTKKRDEATLNPPDTDIRDSGKKPVMLFLHGGSYMEGTGNMFDGSVLAAYGNVIVATLNYRLGVLGFLSTGDQAAKGNYGLLDQIQALRWLSENIAHFGGDPERITIFGSGAGASCVNLLILSHHSEGLFQKAIAQSGTAISSWSVNYQPLKYTRLLAAKVGCDREDSTEAVECLRRKSSRELVDQDVQPARYHIAFGPVVDGDVVPDDPEILMQQGEFLNYDMLIGVNQGEGLKFVEDSAESEDGVSASAFDFTVSNFVDNLYGYPEGKDVLRETIKFMYTDWADRDNGEMRRKTLLALFTDHQWVAPAVATAKLHADYQSPVYFYTFYHHCQAEGRPEWADAAHGDELPYVFGVPMVGATDLFPCNFSKNDVMLSAVVMTYWTNFAKTGDPNQPVPQDTKFIHTKPNRFEEVVWSKFNSKEKQYLHIGLKPRVRDNYRANKVAFWLELVPHLHNLH
B2: MDGA1 C2 (Ig1–Ig3; Y22-K330) (domain or fragment, human, UniProt Q8NFP4-1 22-330, looked up)
chain: YAPAQAQIVHAGQACVVKEDNISERVYTIREGDTLMLQCLVTGHPRPQVRWTKTAGSASDKFQETSVFNETLRIERIARTQGGRYYCKAENGVGVPAIKSIRVDVQYLDEPMLTVHQTVSDVRGNFYQEKTVFLRCTVNSNPPARFIWKRGSDTLSHSQDNGVDIYEPLYTQGETKVLKLKNLRPQDYASYTCQVSVRNVCGIPDKAITFRLTNTTAPPALKLSVNETLVVNPGENVTVQCLLTGGDPLPQLQWSHGPGPLPLGALAQGGTLSIPSVQARDSGYYNCTATNNVGNPAKKTVNLLVRSMK
modifications: TAMRA label ((5/6)-TAMRA-SE) in the FP assay
B3: MDGA1 C4 (Ig1–Ig4; Y22-I433) (domain or fragment, human, UniProt Q8NFP4-1 22-433, looked up)
chain: YAPAQAQIVHAGQACVVKEDNISERVYTIREGDTLMLQCLVTGHPRPQVRWTKTAGSASDKFQETSVFNETLRIERIARTQGGRYYCKAENGVGVPAIKSIRVDVQYLDEPMLTVHQTVSDVRGNFYQEKTVFLRCTVNSNPPARFIWKRGSDTLSHSQDNGVDIYEPLYTQGETKVLKLKNLRPQDYASYTCQVSVRNVCGIPDKAITFRLTNTTAPPALKLSVNETLVVNPGENVTVQCLLTGGDPLPQLQWSHGPGPLPLGALAQGGTLSIPSVQARDSGYYNCTATNNVGNPAKKTVNLLVRSMKNATFQITPDVIKESENIQLGQDLKLSCHVDAVPQEKVTYQWFKNGKPARMSKRLLVTRNDPELPAVTSSLELIDLHFSDYGTYLCMASFPGAPVPDLSVEVNI
modifications: TAMRA label ((5/6)-TAMRA-SE) in the FP assay
B4: MDGA1 C8 (Ig1–Ig2; Y22-T237) (domain or fragment, human, UniProt Q8NFP4-1 22-237, looked up)
chain: YAPAQAQIVHAGQACVVKEDNISERVYTIREGDTLMLQCLVTGHPRPQVRWTKTAGSASDKFQETSVFNETLRIERIARTQGGRYYCKAENGVGVPAIKSIRVDVQYLDEPMLTVHQTVSDVRGNFYQEKTVFLRCTVNSNPPARFIWKRGSDTLSHSQDNGVDIYEPLYTQGETKVLKLKNLRPQDYASYTCQVSVRNVCGIPDKAITFRLTNTT
modifications: TAMRA label ((5/6)-TAMRA-SE) in the FP assays; no label told for the crystals

Assays:
NLGN2-Fc = NLGN2-Fc (UniProt Q8NFZ4); test: cell-surface binding assay; settings: cited from earlier work
Chain of NLGN2-Fc (Q8NFZ4 15-677): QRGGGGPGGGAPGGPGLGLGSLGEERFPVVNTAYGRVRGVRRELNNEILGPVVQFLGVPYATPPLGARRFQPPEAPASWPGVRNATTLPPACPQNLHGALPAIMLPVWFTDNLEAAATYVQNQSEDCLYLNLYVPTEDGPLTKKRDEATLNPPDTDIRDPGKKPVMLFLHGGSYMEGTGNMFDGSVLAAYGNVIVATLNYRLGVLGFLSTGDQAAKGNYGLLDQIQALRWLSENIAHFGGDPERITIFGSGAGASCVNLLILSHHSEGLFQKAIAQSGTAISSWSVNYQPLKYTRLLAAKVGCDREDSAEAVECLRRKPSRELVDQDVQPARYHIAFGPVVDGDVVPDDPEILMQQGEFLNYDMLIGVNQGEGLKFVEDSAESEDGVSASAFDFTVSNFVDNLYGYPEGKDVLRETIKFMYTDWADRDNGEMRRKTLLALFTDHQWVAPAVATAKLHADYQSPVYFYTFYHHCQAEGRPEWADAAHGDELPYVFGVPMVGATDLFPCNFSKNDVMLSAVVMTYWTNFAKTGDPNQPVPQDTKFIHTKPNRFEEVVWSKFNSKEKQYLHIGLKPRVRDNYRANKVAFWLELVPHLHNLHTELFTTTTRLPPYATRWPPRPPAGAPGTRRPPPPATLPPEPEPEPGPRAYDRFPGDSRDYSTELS

neurexin 1β = neurexin 1β (UniProt P58400); test: SPR; settings: cited from earlier work
Chain of neurexin 1β (P58400 51-396): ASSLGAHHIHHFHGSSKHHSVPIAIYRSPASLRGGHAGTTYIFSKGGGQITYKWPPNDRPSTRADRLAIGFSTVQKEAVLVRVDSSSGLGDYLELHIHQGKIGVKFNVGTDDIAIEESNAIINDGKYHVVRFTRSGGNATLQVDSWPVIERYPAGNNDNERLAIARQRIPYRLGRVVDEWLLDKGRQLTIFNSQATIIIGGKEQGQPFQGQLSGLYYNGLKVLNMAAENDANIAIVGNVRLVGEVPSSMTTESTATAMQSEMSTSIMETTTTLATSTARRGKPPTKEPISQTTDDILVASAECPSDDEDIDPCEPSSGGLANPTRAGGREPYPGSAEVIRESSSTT

crystal structure = molecular target: the molecule itself; test: crystal structure
[1] = molecular target: B1; test: fluorescence polarisation

Molecule: MDGA2 (from UniProt Q7Z553)
Kd (NLGN2-Fc): 46 nM

Molecule: NLGN1 (from UniProt Q62765)
Kd (neurexin 1β): > 10 µM

Molecule: MDGA1 (from UniProt Q8NFP4)
Kd (NLGN2-Fc): 7 nM

Molecule: B1
stoichiometry N (crystal structure): 2

Molecule: B2
binding result [1]: binds

Molecule: B3
binding result [1]: binds

Molecule: B4
Kd [1]: 21 nM
